Reference: US20150004189A1 (published 2015)
Numbering of substitutions follows the chain as printed.

T1: HLA-DP DPB1*0201 (human)
T1 chain 1: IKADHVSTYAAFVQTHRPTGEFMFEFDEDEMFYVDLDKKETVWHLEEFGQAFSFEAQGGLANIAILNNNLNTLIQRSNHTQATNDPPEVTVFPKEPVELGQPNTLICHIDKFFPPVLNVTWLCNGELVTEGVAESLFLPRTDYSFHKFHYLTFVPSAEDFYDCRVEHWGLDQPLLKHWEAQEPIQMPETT
T1 chain 2: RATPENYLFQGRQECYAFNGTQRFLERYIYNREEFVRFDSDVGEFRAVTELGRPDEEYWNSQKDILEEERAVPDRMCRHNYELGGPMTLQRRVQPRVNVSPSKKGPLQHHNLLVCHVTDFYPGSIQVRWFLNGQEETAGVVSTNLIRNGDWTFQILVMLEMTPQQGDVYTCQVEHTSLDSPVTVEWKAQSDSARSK

T2: HLA-DP DPB1*0401 (human)
T2 chain 1: T1 chain 1
T2 chain 2: T1 chain 2 with V36A, D55A, E56A, E69K

B1: Der p 1 peptide 3324.0829 (position 136) (peptide)
peptide: SGVAATESAYLAYRN
B2: Der p 1 peptide 3324.0840 (position 226) (peptide)
peptide: REALAQTHSAIAVII
B3: Der p 4 peptide 3324.0976 (position 251) (peptide)
peptide: IEFRFYKEITNVFRG
B4: Der p 4 peptide 3324.0977 (position 321) (peptide)
peptide: AFMLAWNYGVPRVMS
B5: Der p 4 peptide 3324.0980 (position 411) (peptide)
peptide: YQIAFSRGNRAFIAI
B6: Der p 4 peptide 3324.0974 (position 416) (peptide)
peptide: SRGNRAFIAINLQKN
B7: Der p 4 peptide 3324.0975 (position 476) (peptide)
peptide: YVGHDEFDAFVAYHI
B8: Der p 4 peptide 3324.0971 (position 482) (peptide)
peptide: FDAFVAYHIGARIVS
B9: Aln g 1 peptide 3324.0004 (position 11) (peptide)
peptide: PSVIPAARLFKAFIL
B10: Aln g 1 peptide 3324.0007 (position 111) (peptide)
peptide: GGSILKISNKFHTKG
B11: Bet v 1 peptide 3324.0353 (position 96) (peptide)
peptide: LEKISNEIKIVATPD
B12: Bet v 6 peptide 3324.0387 (position 206) (peptide)
peptide: RTLNKIVYIKPAKNI
B13: Der p 1 peptide 3324.0832 (position 131) (peptide)
peptide: SCWAFSGVAATESAY
B14: Der p 4 peptide 3324.0986 (position 381) (peptide)
peptide: EHRWREIYNMVKFRM
B15: Der p 1 peptide 3324.0831 (position 176) (peptide)
peptide: RGIEYIQHNGVVQES
B16: Der p 4 peptide 3324.0987 (position 96) (peptide)
peptide: IVLNHMTGAQSGKGT
B17: Bet v 1 peptide 3324.0352 (position 111) (peptide)
peptide: GGSILKISNKYHTKG
B18: Der p 4 (251-265) peptide 3324.0976 (peptide)
peptide: IEFRFYKEITNVFRG
B19: Der p 4 (321-335) peptide 3324.0977 (peptide)
peptide: AFMLAWNYGVPRVMS
B20: Der p 4 (381-395) peptide 3324.0986 (peptide)
peptide: EHRWREIYNMVKFRM
B21: Der p 4 (386-400) peptide 3324.0978 (peptide)
peptide: EIYNMVKFRMIAGQE
B22: Der p 4 (416-430) peptide 3324.0974 (peptide)
peptide: SRGNRAFIAINLQKN
B23: Der p 4 (476-490) peptide 3324.0975 (peptide)
peptide: YVGHDEFDAFVAYHI
B24: Aln g 1 (11-25) peptide 3324.0004 (peptide)
peptide: PSVIPAARLFKAFIL
B25: Aln g 1 (111-125) peptide 3324.0007 (peptide)
peptide: GGSILKISNKFHTKG
B26: Bet v 1 (96-110) peptide 3324.0353 (peptide)
peptide: LEKISNEIKIVATPD
B27: Der f 1 (136-150) peptide 3324.0666 (peptide)
peptide: FSGVAATESAYLAYR
B28: Der p 4 (482-496) peptide 3324.0971 (peptide)
peptide: FDAFVAYHIGARIVS
B29: Bet v 1 (111-125) peptide 3324.0352 (peptide)
peptide: GGSILKISNKYHTKG
B30: Bet v 6 (206-220) peptide 3324.0387 (peptide)
peptide: RTLNKIVYIKPAKNI
B31: Que a 1 (21-35) peptide KAFVLDSDNLIPKVV (peptide)
peptide: KAFVLDSDNLIPKVV
B32: Bet v 6 (211-225) peptide IVYIKPAKNIYSFNE (peptide)
peptide: IVYIKPAKNIYSFNE
B33: Cup a 1 (66-80) peptide KALWIIFSQNMNIKL (peptide)
peptide: KALWIIFSQNMNIKL
B34: Dac g 4 (1-15) peptide DIYNYMEPYVSKVDP (peptide)
peptide: DIYNYMEPYVSKVDP
B35: Cup a 1 (71-85) peptide IFSQNMNIKLQMPLY (peptide)
peptide: IFSQNMNIKLQMPLY
B36: Cup s 1 (91-105) peptide IIFSQNMNIKLKMPL (peptide)
peptide: IIFSQNMNIKLKMPL
B37: Que a 1 (11-25) peptide ASVIPPARLFKAFVL (peptide)
peptide: ASVIPPARLFKAFVL
B38: Dac g 2 (16-30) peptide NLALSIKYNKEGDSM (peptide)
peptide: NLALSIKYNKEGDSM
B39: Cla h 5 (6-20) peptide, Peptide ID 3324.0576 (peptide)
peptide: AFLLLGLAGNSSPSA
B40: Cla h 6 (161-175) peptide GGRLAFQEFMIVPSG, Peptide ID 3324.0588 (peptide)
peptide: GGRLAFQEFMIVPSG
B41: Cla h 8 (101-115) peptide QIDAFIANAGATADS, Peptide ID 3324.0601 (peptide)
peptide: QIDAFIANAGATADS
B42: Cla h 8 (181-195) peptide GCIHMARSLANEWRD, Peptide ID 3324.0602 (peptide)
peptide: GCIHMARSLANEWRD
B43: Cla h 8 (236-250) peptide KELKGAYVYFASDAS, Peptide ID 3324.0598 (peptide)
peptide: KELKGAYVYFASDAS
B44: Fel d 1 2 (26-40) peptide IFYDVFFAVANGNEL, Peptide ID 3324.1052 (peptide)
peptide: IFYDVFFAVANGNEL
B45: Cla h 8 (151-165) peptide GTGSLVITASMSGHI, Peptide ID 3324.0603 (peptide)
peptide: GTGSLVITASMSGHI
B46: Lol p 3 peptide, position 76, NVFDEVIPTAFTVGK (Peptide ID 3324.1141) (peptide)
peptide: NVFDEVIPTAFTVGK
B47: Lol p 5 1 peptide, position 71, LIEKINAGFKAAVAA (Peptide ID 3324.1175) (peptide)
peptide: LIEKINAGFKAAVAA
B48: Pha a 5 peptide, position 121, DAFIAALTEALRVIA (Peptide ID 3324.1432) (peptide)
peptide: DAFIAALTEALRVIA
B49: Lol p 3 peptide, position 11, SDAKTLVLNIKYTRP (Peptide ID 3324.1142) (peptide)
peptide: SDAKTLVLNIKYTRP
B50: Lol p 3 peptide, position 76, NVFDEVIPTAFTVGK (Peptide ID 3324.1141) (peptide)
peptide: NVFDEVIPTAFTVGK
B51: Poa p 5 peptide, position 51, QKLMEDINVGFKAAV (Peptide ID 3324.1580) (peptide)
peptide: QKLMEDINVGFKAAV

Target: HLA-DQ molecule DQB1*0202 (human)
Experiment: inhibition of radiolabeled peptide binding to purified HLA

Binder | IC50
B1 | 0.871 µM
B2 | 0.629 µM
B3 | 6.2 µM
B4 | 8.36 µM
B5 | 8.72 µM
B6 | 7.39 µM
B7 | 8.14 µM
B8 | 4.75 µM
B9 | 11.2 µM
B10 | 50 µM
B11 | 8.67 µM
B12 | 12.5 µM

Target: HLA-DQ molecule DQB1*0502 (human)
Experiment: as above

Binder | IC50
B13 | 4.4 µM
B3 | 5.52 µM
B4 | 0.992 µM
B14 | 8.94 µM
B6 | 0.546 µM
B7 | 5.04 µM
B11 | 5.09 µM

Target: HLA-DQ molecule DQB1*0503 (human)
Experiment: as above

Binder | IC50
B2 | 32.1 µM
B3 | 4.37 µM
B4 | 0.339 µM
B14 | 4.24 µM
B5 | 1.41 µM
B6 | 0.084 µM
B8 | 1.08 µM
B9 | 1.45 µM
B11 | 8.89 µM
B12 | 3.46 µM

Target: HLA-DQ molecule DQB1*0602 (human)
Experiment: as above

Binder | IC50
B15 | 0.859 µM
B16 | 0.065 µM
B3 | 0.318 µM
B4 | 0.762 µM
B6 | 0.098 µM
B8 | 0.054 µM
B17 | 6.06 µM
B11 | 0.019 µM
B12 | 0.058 µM

Target: T1, HLA-DP DPB1*0201
Experiment: inhibition of radiolabeled peptide binding to purified HLA-DP

Binder | IC50
B18 | 0.035 µM
B19 | 0.185 µM
B20 | 0.109 µM
B21 | 0.0053 µM
B22 | 0.0072 µM
B23 | 0.177 µM
B24 | 0.063 µM
B25 | 0.843 µM
B26 | 7.57 µM

Target: T2, HLA-DP DPB1*0401
Experiment: as above

Binder | IC50
B27 | 1.44 µM
B19 | 5.16 µM
B20 | 0.549 µM
B21 | 0.122 µM
B23 | 0.273 µM
B28 | 0.071 µM
B24 | 7.28 µM
B25 | 18.5 µM
B26 | 6.82 µM
B29 | 10.5 µM
B30 | 0.041 µM

Target: HLA-DQ molecule DQB1*0202 (human)
Experiment: inhibition of radiolabeled peptide binding to purified HLA-DQ

Binder | IC50
B31 | 0.194 µM

Target: HLA-DQ molecule DQB1*0502 (human)
Experiment: as above

Binder | IC50
B32 | 5.83 µM
B33 | 50 µM
B34 | 2.02 µM

Target: HLA-DQ molecule DQB1*0503 (human)
Experiment: as above

Binder | IC50
B32 | 0.65 µM
B33 | 29 µM
B35 | 4.9 µM
B36 | 36 µM
B37 | 1.95 µM
B31 | 2.64 µM
B38 | 8.96 µM

Target: HLA-DQ molecule DQB1*0602 (human)
Experiment: as above

Binder | IC50
B32 | 0.019 µM
B35 | 0.262 µM
B36 | 1.86 µM
B38 | 0.258 µM

Target: HLA DQ molecule DQB1*0502 (human)
Experiment: inhibition of radiolabeled peptide binding to purified HLA class II

Binder | IC50
B39 | 0.718 µM
B40 | 4.95 µM
B41 | 0.819 µM
B42 | 0.673 µM
B43 | 4.67 µM
B44 | 6.65 µM

Target: HLA DQ molecule DQB1*0503 (human)
Experiment: as above

Binder | IC50
B40 | 2.44 µM
B41 | 0.084 µM
B45 | 13.8 µM
B42 | 0.649 µM
B43 | 0.518 µM
B44 | 8.13 µM

Target: HLA DQ molecule DQB1*0202 (human)
Experiment: as above

Binder | IC50
B46 | 1.7 µM
B47 | 50 µM
B48 | 2.04 µM

Target: HLA DQ molecule DQB1*0503 (human)
Experiment: as above
Remark: another data set of the same source

Binder | IC50
B46 | 2.9 µM
B47 | 0.147 µM
B48 | 50 µM

Target: HLA-DP molecule DPB1*2001 (human)
Experiment: inhibition of radiolabeled peptide binding to purified HLA-DP

Binder | IC50
B49 | 24 µM
B50 | 13.2 µM
B51 | 2.18 µM
